Key:
[1] = target: Prp19 (Chlamydomonas reinhardtii (endogenous)); assay: cryo-EM structure; endogenous spliceosomes (C* complex) isolated at 4 °C by the same procedure from the Cdc5L-Flag and the Prp19-Flag knock-in strains: anti-FLAG M2 resin (20 mM HEPES-KOH pH 7.9, 150 mM NaCl, 1.5 mM MgCl2, 4% glycerol), FLAG peptide elution, 10-30% glycerol gradient with 0-0.1% glutaraldehyde; two reconstructions at 2.6 Å without obvious differences, one atomic model
[2] = target: Prp19-Flag (Chlamydomonas reinhardtii (endogenous)); assay: as above

Substance | stoichiometry N [1] | stoichiometry N [2]
Prp19 (natural protein) | 4 | 
Prp19-Flag (natural protein) |  | 4
